One substance from article PMC10350833 can be followed below.

One experiment concerns the target GFP-p62^S349E (human) (UniProt Q13501).
In the next experiment the target is GFP-p62^S349A (human) (UniProt Q13501).

For “mCherry-tagged KEAP1 (from UniProt Q14145 1-624) (natural protein)”, the FLIP: signal intensity of mCherry-KEAP1 in GFP-p62 bodies of the non-bleached area, percent of the baseline value at 30 min after photobleaching (efflux of KEAP1) in the experiment with GFP-p62^S349E (human) stood at 72%; in the experiment with GFP-p62^S349A (human) it was 58.2%.
